What was measured:
CDR1抗原ペプチド = target: T1, CDR1抗原ペプチド; experiment: cell-based or functional assay
T1 peptide: RSSKSLLYSNGNTYLY

[1] = target: ヘリコバクターピロリ菌のウレーアゼ (ヘリコバクターピロリ菌 (Helicobacter pylori)) (UniProt P14916); experiment: cell-based or functional assay

B1: i41SL1−2抗体の軽鎖 (other)
VL: DIVMTQTQLTLTINIGQPASISCKSSQSLLDSDGKTYLNWLFQRPGQSPKRLIYLVSKLDSGVPDRFTGSGSGTDFTLKISRVEAEDLGVYYCWQGTHFPLTFGAGTKLELRRA
modifications: cysteines reduced with b-mercaptoethanol and alkylated with iodoacetamide (positions not stated)
In the case of B1, the “回転数(kcat)” value (CDR1抗原ペプチド) is reported as ~0.005 fold of trypsin (trypsin measured on another synthetic peptide).

B2: i41SL1−2抗体の重鎖 (other)
VH: QVQLQHSGAELVRPGSSVKVSCKALGYTSTDYEIHWVKQTPVRGLEWIGAIHPGSDVIVYNQKFKGTATLTADKSSSTAYMELRSLTSEDSAVYYCTREGGSVDYVWGQGTLVTVSA
modifications: cysteines reduced with b-mercaptoethanol and alkylated with iodoacetamide (positions not stated)
With B2 the “回転数(kcat)” value (CDR1抗原ペプチド) was ~0.005 fold of trypsin (trypsin measured on another synthetic peptide) and the “触媒効率(kcat/Km)” value (CDR1抗原ペプチド) was ~0.1 fold of trypsin (trypsin measured on another synthetic peptide).

B3: HpU−20抗体のL鎖 (protein)
VL: DVLMTQTPLSLPISLGDQASISCRSSQSIVQSNGNTYLEWYVQKPGQSPKLLIYKVSNRFSGVPDRFSGSGSGTDFTFKISRVEAEDLGVYYCIQGSHVPLTFGAGTKLELKRA
modifications: cysteines reduced with b-mercaptoethanol and alkylated with iodoacetamide (positions not stated)
Work on B3 yielded a タンパク質分解実験 (SDS-PAGE, 1 h): decrease of the β subunit band against the control [1] of 26.7%.

From patent JP2004097211A (dated 2004)
